From US5739002A, “Method for reproducing in vitro the Proteolytic activity of the NS3 protease of hepatitis C virus (HCV)” (Istituto di Richerche di Biologia Molecolare P. Angeletti …, priority 1994, dated 1998)

Assays:
HCV NS3 serine protease [1] = target: T1, HCV NS3 serine protease (Hepatitis C virus (isolate BK), UniProt P26663); experiment: Activation of HCV NS3 serine protease in an in vitro translation assay (rabbit reticulocyte extracts, NS5AB precursor substrate); assay type: biochemical
T1 construct: substrate NS5AB precursor
Excerpt: The plasmids described in FIG. 1 can also be used for in vitro synthesis of mRNA coding for the respective HCV proteins using the purified RNA polymerase enzyme of the phage T7 (Promega).
Generally the plasmids derived from pCite-1^R were linearized using suitable restriction enzymes and transcribed using the protocols supplied by the manufacturer (Promega). These synthetic mRNA, could later be used to synthesize the corresponding proteins in extracts of rabbit reticulocytes in the presence of canine pancreas microsomal membranes. The reticulocyte extracts, the canine pancreas microsomal membranes, like all the other material required, were purchased from Promega, which also supplied the instructions for the in vitro protein syntheses process described above.
Programming the in vitro translation mixture with mRNA transcribed from pCite(NS3) it is possible to observe synthesis of a protein with the expected molecular weight (68 kDa) containing the entire NS3 serine protease domain. The mRNA transcribed from pCite(NS5AB) guides the synthesis of a precursor of 115 kDa which contains NS5A and NS5B and is thus a substrate for the proteolytic activity associated with NS3.
This peptide was added to an in vitro translation mixture simultaneously programmed with the mRNAs transcribed from the plasmids pCite(NS3) and pCite(NS5AB).

[2] = target: T2, recombinant NS3 serine protease (Hepatitis C virus (isolate BK), UniProt P26663); experiment: Assay of recombinant HCV NS3 serine protease purified from E. coli on a peptide substrate (NS4A/4B junction), HPLC; assay type: biochemical
T2 construct: NS4A/4B peptide substrate
Experimental: The recombinant NS3 serine protease produced according to the above procedure in E. coli could be assayed for activity by cleaving a substrate that provides detectable cleavage products. The signal is preferably detectable by colorimetric or fluorometric means. Methods such as HPLC and the like are also suitable.
For example, we used, as a substrate, synthetic peptides corresponding to the NS4A/4B junction of the HCV polyprotein.
The activity assay is performed by incubating 5-1000 μM substrate and 0.05-1 μM protease in buffer containing 25 mM Tris/HCl pH 7.5, 3 mM dithiothreitol, 0.5% (w/v) CHAPS and 10% (v/v) glycerol for 1-3 hours at 22° C. The reaction is stopped by addition of trifluoracetic acid to yield a final concentration of 0.1% (w/v).
The reaction products are then separated by HPLC on a C18 reverse phase column and quantitated according to their absorbance of the far UV light.

HCV NS3 serine protease [3] = target: T1, HCV NS3 serine protease; experiment: Activation of HCV NS3 serine protease in cultivated HeLa cells (vTF7-3 infection, plasmid cotransfection, immunoprecipitation); assay type: cell-based; settings: NS4A expressed transiently in HeLa cells together with the NS3 serine protease domain; no cleavage without NS4A

T1 sequence (P26663 1007-1615): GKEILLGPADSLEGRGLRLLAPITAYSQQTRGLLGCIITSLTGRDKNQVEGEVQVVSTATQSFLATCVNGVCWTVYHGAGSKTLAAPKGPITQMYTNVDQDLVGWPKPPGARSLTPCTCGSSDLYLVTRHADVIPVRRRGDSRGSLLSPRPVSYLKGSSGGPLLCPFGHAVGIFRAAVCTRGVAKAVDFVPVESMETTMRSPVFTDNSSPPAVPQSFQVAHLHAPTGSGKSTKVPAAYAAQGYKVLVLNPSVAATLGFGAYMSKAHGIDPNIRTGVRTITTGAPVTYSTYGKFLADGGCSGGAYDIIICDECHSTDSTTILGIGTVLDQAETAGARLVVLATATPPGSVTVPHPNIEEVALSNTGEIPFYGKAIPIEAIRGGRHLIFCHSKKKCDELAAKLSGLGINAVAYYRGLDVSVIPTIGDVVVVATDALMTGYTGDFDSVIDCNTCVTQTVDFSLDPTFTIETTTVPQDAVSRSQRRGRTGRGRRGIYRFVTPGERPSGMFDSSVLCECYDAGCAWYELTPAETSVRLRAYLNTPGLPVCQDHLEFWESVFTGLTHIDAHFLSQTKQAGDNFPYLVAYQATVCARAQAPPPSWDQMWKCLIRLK
T2 sequence (P26663 1027-1206): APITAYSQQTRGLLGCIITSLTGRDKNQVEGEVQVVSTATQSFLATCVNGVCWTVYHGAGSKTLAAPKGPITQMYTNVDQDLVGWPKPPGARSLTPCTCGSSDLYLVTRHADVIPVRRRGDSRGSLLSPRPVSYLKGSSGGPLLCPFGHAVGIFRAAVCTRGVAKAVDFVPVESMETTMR

SEQ ID NO:3: Synthetic peptide derived from the C-terminal portion of SEQ ID NO:2 (NS4A); carboxy terminal cysteine replaced with alpha-aminobutyric acid (Abu)
proteolytic activity of the NS3 serine protease domain on NS5AB substrate (HCV NS3 serine protease [1]; peptide added to in vitro translation mixture programmed with mRNAs from pCite(NS3) and pCite(NS5AB)): proteolytic cleavage of the substrate in the two products containing the proteins NS5A and NS5B
stimulation of the proteolytic activity of the recombinant NS3 serine protease ([2]; increasing amounts of peptide, NS4A/4B junction peptide substrate, pH 7.5, 22° C., HPLC): up to 20 fold
peptide to protease ratio at which maximal activity is reached ([2]; recombinant NS3 serine protease and synthetic peptide): equimolar amounts

NS4A: HCV non-structural hydrophobic protein of 6 kDa acting as cofactor of the NS3 serine protease
activation of the proteolytic activity associated with NS3 (cleavage of the precursor encoded by pCite(NS4B5A)) (HCV NS3 serine protease [3]): can thus activate the proteolytic activity associated with NS3
serine protease activity of NS3 on a substrate containing NS5A and NS5B (HCV NS3 serine protease [1]; in vitro translation, protein sequence containing NS4A present in addition to the NS3 protease domain, no activity with NS3 domain alone): serine protease activity of NS3 becomes evident
